We go through 2 proteins from article PMC4858151, “Phosphorylation of Human Choline Kinase Beta by Protein Kinase A: Its Impact on Activity and Inhibition” (PLoS ONE, 2016).

Holding throughout (type): biochemical, Homo sapiens
Substrate in series [1]: NCCO
Kind of series: Michaelis-Menten kinetics (Km), PK-LDH coupled assay. The settings on record: MgCl2, ATP.

Substrate in series [2]: C[N+](C)(C)CCO
The series is described as above. Particulars: MgCl2, ATP choline binding site.

Substrate in series [3]: Nc1ncnc2c1ncn2[C@@H]1O[C@H](COP(=O)(O)OP(=O)(O)OP(=O)(O)O)[C@@H](O)[C@H]1O
Nature of the series: purified protein. Particulars: MgCl2.

B1: choline kinase beta (CKβ) (Homo sapiens) (protein)
chain: AAEATAVAGSGAVGGCLAKDGLQQSKCPDTTPKRRRASSLSRDAERRAYQWCREYLGGAWRRVQPEELRVYPVSGGLSNLLFRCSLPDHLPSVGEEPREVLLRLYGAILQGVDSLVLESVMFAILAERSLGPQLYGVFPEGRLEQYIPSRPLKTQELREPVLSAAIATKMAQFHGMEMPFTKEPHWLFGTMERYLKQIQDLPPTGLPEMNLLEMYSLKDEMGNLRKLLESTPSPVVFCHNDIQEGNILLLSEPENADSLMLVDFEYSSYNYRGFDIGNHFCEWVYDYTHEEWPFYKARPTDYPTQEQQLHFIRHYLAEAKKGETLSQEEQRKLEEDLLVEVSRYALASHFFWGLWSILQASMSTIEFGYLDYAQSRFQFYFQQKGQLTSVHSSS
notes: purified recombinant unphosphorylated CKβ
A word on the Km: it is the concentration of substrate that gives half-maximal velocity. What is called Vmax is the top rate of the reaction or transport when substrate is in excess. One may read the kcat as the maximal rate divided by the concentration of active sites. For orientation: kcat/Km means the second-order rate constant that governs catalysis at low substrate concentration. For B1, in series [1], the Km is 260 ± 10 µM and the Vmax turned out to be 14.3 µmol/min/mg. In series [2], the Michaelis constant (Km) is 420 ± 60 µM, the Vmax came out at 64.3 µmol/min/mg, the turnover number (kcat) was determined as 48.2 s⁻¹ and the kcat/Km was 115000 M⁻¹ s⁻¹. For the same protein, in series [3], the Km was determined as 650 ± 30 µM, the Vmax is 72.5 µmol/min/mg, the kcat turned out to be 21.5 s⁻¹ and the kcat/Km amounted to 39100 M⁻¹ s⁻¹.

B2: choline kinase beta (CKβ) (Homo sapiens; S39D/S40D) (protein)
chain: AAEATAVAGSGAVGGCLAKDGLQQSKCPDTTPKRRRADDLSRDAERRAYQWCREYLGGAWRRVQPEELRVYPVSGGLSNLLFRCSLPDHLPSVGEEPREVLLRLYGAILQGVDSLVLESVMFAILAERSLGPQLYGVFPEGRLEQYIPSRPLKTQELREPVLSAAIATKMAQFHGMEMPFTKEPHWLFGTMERYLKQIQDLPPTGLPEMNLLEMYSLKDEMGNLRKLLESTPSPVVFCHNDIQEGNILLLSEPENADSLMLVDFEYSSYNYRGFDIGNHFCEWVYDYTHEEWPFYKARPTDYPTQEQQLHFIRHYLAEAKKGETLSQEEQRKLEEDLLVEVSRYALASHFFWGLWSILQASMSTIEFGYLDYAQSRFQFYFQQKGQLTSVHSSS
notes: purified S39D/S40D CKβ
B2: in series [1], the Km amounted to 570 ± 20 µM, the Vmax amounted to 28.4 µmol/min/mg, the kcat is 45.3 s⁻¹ and the kcat/Km is 98500 M⁻¹ s⁻¹. Further, in series [2], the Km stood at 460 ± 60 µM, the Vmax came out at 60.4 µmol/min/mg, the turnover number (kcat) turned out to be 45.3 s⁻¹ and the kcat/Km worked out at 98500 M⁻¹ s⁻¹. Further, in series [3], the Km worked out at 585.3 ± 30 µM, the maximal velocity (Vmax) was determined as 67.3 µmol/min/mg, the kcat was 21.3 s⁻¹ and the kcat/Km came out at 37400 M⁻¹ s⁻¹.
